The results in this text go back to US20240117018A1.

Assay in all cases: cell-based or functional assay
Test [1] concerns the target MuLV envelope (negative control pseudovirus).
Test [2] deals with Env of HIV-1 pseudovirus 1006_11_C3_1601 (HIV-1).
Test [3] deals with Env of HIV-1 pseudovirus 62357_14_D3_4589 (HIV-1).
In test [4] the target is Env of HIV-1 pseudovirus 928-28 (HIV-1).
The target of test [5] is Env of HIV-1 pseudovirus CAP210.2.00.E8 (HIV-1).
Test [6] concerns the target Env of HIV-1 pseudovirus CNE30 (HIV-1).
In test [7] the target is Env of HIV-1 pseudovirus CNE53 (HIV-1).
Test [8] has as its target Env of HIV-1 pseudovirus Ce704809221_1B3 (HIV-1).
For test [9], the target named is Env of HIV-1 pseudovirus HIV-16055-2.3 (HIV-1).
The target of test [10] is Env of HIV-1 pseudovirus T250-4 (HIV-1).
For test [11], the target named is Env of HIV-1 pseudovirus WITO4160.33 (HIV-1).
The target in test [12] is Env of HIV-1 pseudovirus ZM109F.PB4 (HIV-1).
Test [13] addresses Env of HIV-1 pseudovirus ZM197M.PB7 (HIV-1).
Test [14] has as its target Env of HIV-1 pseudovirus ZM247v1(Rev-) (HIV-1).
The target in test [15] is HIV-1 Env pseudovirus 231965.c01 (HIV-1).
Test [16] has as its target HIV-1 Env pseudovirus 235-47 (HIV-1).
Test [17] concerns the target HIV-1 Env pseudovirus 3103.v3.c10 (HIV-1).
The target of test [18] is HIV-1 Env pseudovirus 3301.v1.c24 (HIV-1).
For test [19], the target named is HIV-1 Env pseudovirus 6811.v7.c18 (HIV-1).
The target of test [20] is HIV-1 Env pseudovirus BJOX015000.11.5 (HIV-1).
The target of test [21] is HIV-1 Env pseudovirus X1632_S2_B10 (HIV-1).
Test [22] has as its target HIV-1 Env pseudovirus X2088_c9 (HIV-1).

On to N49P9 (antibody), for which, in test [1], the neutralization IC50 was greater than 50 µg/mL, the neutralization IC80 is greater than 50 µg/mL and the neutralization MPI is 13.

On to N49P19 (antibody), for which, in test [1], the neutralization IC50 was greater than 50 µg/mL, the neutralization IC80 is greater than 50 µg/mL and the neutralization MPI was found to be 0.

For the substance 10E8 (antibody), the IC50 was found to be 0.172 µg/mL in test [2]; 0.119 µg/mL in [3]; 0.384 µg/mL in test [4]; 0.798 µg/mL in test [5]; 1.56 µg/mL in test [6]; 0.326 µg/mL in test [7]. Besides, the IC50 turned out to be 0.058 µg/mL in test [8]; 0.722 µg/mL in [9]; 1.35 µg/mL in [10]; 0.094 µg/mL in [11]; 0.295 µg/mL in test [12]; 0.148 µg/mL in test [13]. In test [14], this substance came in with an IC50 of 0.506 µg/mL. Also, the IC80 in [2] is 3 µg/mL; in test [3], 1.06 µg/mL; in test [4] it was 1.96 µg/mL; in test [5], 3.89 µg/mL; in test [6] it was 9.84 µg/mL; in test [7], 1.92 µg/mL. Also, the IC80 in [8] worked out at 0.319 µg/mL; in test [9] it was 6.5 µg/mL; in [10], 8.13 µg/mL; in test [11], 1.23 µg/mL; in [12], 1.89 µg/mL; in test [13], 0.802 µg/mL. This substance displayed an IC80 in test [14] of 6.75 µg/mL.

On to PG16 (antibody), for which the IC50 in test [2] is greater than 50 µg/mL; in [3] it was greater than 50 µg/mL; in [4], 0.034 µg/mL; in [5], 0.01 µg/mL; in test [6] it was greater than 50 µg/mL; in test [7] it was greater than 50 µg/mL. Also, the IC50 was found to be 0.021 µg/mL in [8]; 0.17 µg/mL in [9]; 0.002 µg/mL in [10]; 0.002 µg/mL in [11]; 7.03 µg/mL in [12]; 1.5 µg/mL in [13]. Besides, the IC50 in test [14] came out at 0.016 µg/mL. Further, the IC80 was greater than 50 µg/mL in [2]; greater than 50 µg/mL in test [3]; 0.237 µg/mL in [4]; 0.042 µg/mL in test [5]; greater than 50 µg/mL in test [6]; greater than 50 µg/mL in test [7]. The IC80 in [8] is 0.116 µg/mL; in test [9] it was greater than 0.25 µg/mL; in test [10], 0.005 µg/mL; in [11], 0.012 µg/mL; in test [12], greater than 50 µg/mL; in test [13] it was 22.8 µg/mL. Besides, the IC80 in test [14] came out at 0.189 µg/mL.

For PG9 (antibody), the IC50 is 0.366 µg/mL in test [2]; greater than 50 µg/mL in test [3]; 0.101 µg/mL in [4]; 0.04 µg/mL in [5]; greater than 50 µg/mL in test [6]; 0.131 µg/mL in [7]. The IC50 in [8] worked out at 0.037 µg/mL; in test [9], 0.021 µg/mL; in test [10] it was 0.005 µg/mL; in [11] it was 0.01 µg/mL; in test [12], 0.256 µg/mL; in test [13], 0.899 µg/mL. This substance had an IC50 in [14] of 0.112 µg/mL. For the same substance, the IC80 was 1.91 µg/mL in test [2]; greater than 50 µg/mL in [3]; 0.45 µg/mL in test [4]; 0.173 µg/mL in test [5]; greater than 50 µg/mL in [6]; 0.6 µg/mL in test [7]. Also, the IC80 turned out to be 0.137 µg/mL in [8]; 0.06 µg/mL in [9]; 0.014 µg/mL in [10]; 0.037 µg/mL in test [11]; 6.69 µg/mL in test [12]; 4.52 µg/mL in [13]. Besides, the IC80 in test [14] stood at 0.323 µg/mL.

With 10-1074 (antibody), the IC50 in test [2] was 0.003 µg/mL; in [3], greater than 50 µg/mL; in test [4], 0.847 µg/mL; in test [5] it was greater than 50 µg/mL; in test [6], 0.363 µg/mL; in test [7], 0.039 µg/mL. The IC50 was 0.139 µg/mL in [8]; greater than 50 µg/mL in test [9]; less than 0.001 µg/mL in [10]; 0.185 µg/mL in test [11]; greater than 50 µg/mL in test [12]; greater than 50 µg/mL in test [13]. Moreover, the IC50 in test [14] worked out at 0.042 µg/mL. The IC80 in [2] was 0.013 µg/mL; in test [3] it was greater than 50 µg/mL; in test [4], 4.7 µg/mL; in test [5], greater than 50 µg/mL; in test [6] it was 1.2 µg/mL; in [7], 0.141 µg/mL. In addition, the IC80 in test [8] is 0.696 µg/mL; in test [9], greater than 50 µg/mL; in test [10] it was 0.005 µg/mL; in test [11] it was 2.11 µg/mL; in test [12], greater than 50 µg/mL; in test [13], greater than 50 µg/mL. The IC80 in test [14] amounted to 0.186 µg/mL.

Consider 8ANC195 (antibody), for which the IC50 (Titer in TZM.bl cells) was 2.36 µg/mL in [15]; greater than 50 µg/mL in [16]; 48.1 µg/mL in [17]; greater than 50 µg/mL in test [18]; 5.34 µg/mL in test [19]; 0.97 µg/mL in test [20]. Besides, the figures for the IC50 (Titer in TZM.bl cells) in [21] and in test [22] were 0.47 µg/mL and greater than 50 µg/mL, respectively. In addition, the IC80 (Titer in TZM.bl cells) is 2.36 µg/mL in test [15]; greater than 50 µg/mL in [16]; greater than 50 µg/mL in test [17]; greater than 50 µg/mL in test [18]; 27.6 µg/mL in test [19]; 4.3 µg/mL in test [20]. Also, the IC80 (Titer in TZM.bl cells) in test [21] is 4.11 µg/mL; in test [22] it was greater than 50 µg/mL.

Take VRC07 (antibody): the IC50 (Titer in TZM.bl cells) was found to be 0.085 µg/mL in [15]; 0.024 µg/mL in [16]; 0.675 µg/mL in test [17]; 0.027 µg/mL in test [18]; 0.093 µg/mL in [19]; 0.054 µg/mL in [20]. Further, the IC50 (Titer in TZM.bl cells) in test [21] is 0.023 µg/mL; in [22], greater than 50 µg/mL. Also, the IC80 (Titer in TZM.bl cells) in test [15] turned out to be 0.263 µg/mL; in test [16], 0.075 µg/mL; in test [17], 1.95 µg/mL; in test [18] it was 0.073 µg/mL; in test [19], 0.435 µg/mL; in [20], 0.479 µg/mL. Besides, the figures for the IC80 (Titer in TZM.bl cells) in test [21] and in test [22] were 0.107 µg/mL and greater than 50 µg/mL, respectively.

On to 3BNC117 (antibody), for which the IC50 (Titer in TZM.bl cells) in test [15] was 0.05 µg/mL; in [16], 0.03 µg/mL; in test [17], 0.22 µg/mL; in test [18], 0.01 µg/mL; in [19], 0.03 µg/mL; in [20], 0.05 µg/mL. Besides, the IC50 (Titer in TZM.bl cells) is 15.7 µg/mL in [21] and greater than 50 µg/mL in test [22]. The IC80 (Titer in TZM.bl cells) stood at 0.22 µg/mL in test [15]; 0.12 µg/mL in test [16]; 0.85 µg/mL in [17]; 0.05 µg/mL in [18]; 0.17 µg/mL in test [19]; 0.32 µg/mL in [20]. Besides, the IC80 (Titer in TZM.bl cells) in [21] and in test [22] was greater than 50 µg/mL throughout.
